# Results published in publication PMC4980113.
# Columns and labels:
# [1] = target: Dip (gp37, degradosome interacting protein) of giant phage φKZ, His-tagged (Pseudomonas phage φKZ); assay: AUC; analytical ultracentrifugation of Dip in solution; data not shown
# [2] = target: Dip (gp37, degradosome interacting protein) of giant phage φKZ, His-tagged (Pseudomonas phage φKZ); assay: ELISA; 350 nM Dip (C-terminal his-tag) held on Ni-NTA HisSorb strips, increasing amounts of RNA degradosome, detected by anti-Strep-tag II-HRP
Substance,stoichiometry N [1],Dip protomers per degradosome protomer at saturation of the signal (Dip protomers per degradosome protomer) [2]
"Dip (gp37, degradosome interacting protein) of giant phage φKZ, His-tagged (natural protein)",2,
"RNA degradosome of P. aeruginosa, purified (C-terminal Strep-tag II on RNase E) (from UniProt Q9HZM8 1-1057) (complex)",,10
